PMC3022821, “Glycogen synthase kinase-3β inactivation inhibits tumor necrosis factor-α production in microglia by modulating nuclear factor κB and MLK3/JNK signaling cascades” (Journal of Neuroinflammation, 2010)

Target: the molecule itself
Experiment: immunoprecipitation and non-reducing SDS-PAGE; BV-2 lysates, IP with goat anti-MLK3; precipitates separated by SDS-PAGE without DTT; blot with rabbit anti-MLK3; disulfide-linked dimer; cells with or without LPS (100 ng/ml)

B1: Mixed lineage kinase 3 (MLK3) (natural protein, mouse (endogenous in BV-2), UniProt Q80XI6 1-850, looked up)
chain: MEPLKNLFLKSPLGSWNGSGSGGGGGTGGVRPEGSPKATAAYANPVWTALFDYEPNGQDELALRKGDRVEVLSRDAAISGDEGWWAGQVGGQVGIFPSNYVSRGGGPPPCEVASFQELRLEEVIGIGGFGKVYRGSWRGELVAVKAARQDPDEDISVTAESVRQEARLFAMLAHPNIIALKAVCLEEPNLCLVMEYAAGGPLSRALAGRRVPPHVLVNWAVQIARGMHYLHCEALVPVIHRDLKSNNILLLQPIEGDDMEHKTLKITDFGLAREWHKTTQMSAAGTYAWMAPEVIKASTFSKGSDVWSFGVLLWELLTGEVPYRGIDCLAVAYGVAVNKLTLPIPSTCPEPFAQLMADCWAQDPHRRPDFASILQQLEALEAQVLREMPRDSFHSMQEGWKREIQGLFDELRAKEKELLSREEELTRAAREQRSQAEQLRRREHLLAQWELEVFERELTLLLQQVDRERPHVRRRRGTFKRSKLRARDGGERISMPLDFKHRITVQASPGLDRRRNVFEVGAGDSPTFPRFRAIQLEPTESGQTWGRQSPRRLEDSSNGERRACWAWGPSSPKPGEAQNGRRRSRMDEATWYLDSDDSSPLGSPSTPPALNGNPPRPSPEPEEPRRAGPTERGNSSGTPKLIQRALLRGTALLASLGLGRDLQPPGGLSRERGESPTAPPPAQMPSPCPPELPSTPLIRLSQTTPDAHSSPTPGPLLLDLGVPSGQPSAKSPRREETRGRTVSPPPGISRSAPGTPGTPRSPPLGLISRPRPSPLRSRIDPWSFVSAGPRPSPLPSPQPAPRRAPWTLFPDSDPFWDSPPANPFRGGSQDCRTQTKDMGAQAPWAPEAGP
notes: Mixed lineage kinase 3 (MLK3), endogenous in murine BV-2 microglial cells; monomer of 105 kDa on SDS-PAGE; Precipitated with a goat anti-MLK3 antibody (Santa Cruz Biotechnology); the dimer is disulfide-linked and is seen only without DTT; source: endogenous, BV-2 cell lysate
- stoichiometry N: 2
